The values that follow come from patent publication US20260242478A1 (published 2026).

Where no end group is shown, it is not given here.

The target in assay [1] is T1, Anti-CD28 scFv (VH - linker 1 - VL) (biotinylated (site not stated)). Put plainly: phage binding ELISA; biotinylated anti-CD28 scFv on neutravidin plate, clonal phage supernatant, anti-M13 HRP detection. A general note: In an ELISA, binding on a coated surface is turned into a signal by an enzyme label.
In assay [2] the target is T1, Anti-CD28 scFv (VH - linker 1 - VL). Put plainly: phage binding ELISA on captured anti-CD28 scFv; wells pre-incubated with soluble CD28 protein (competitor).
Description: Clonal phage were harvested as crude supernatants and screened via standard enzyme linked immunosorbent assays (ELISAs). […] Prior to the addition of clonal phage, wells were incubated with blocking buffer and CD28 soluble protein or blocking buffer alone. Without washing or aspirating, clonal phage supernatants were then added to the wells and incubated for a short time. Wells were then washed followed by detection of bound phage using a horse radish peroxidase conjugated anti-M13 antibody.
Assay [3] has as its target T2, PSMA Fab.
T2 construct: also called 006 PSMA Fab; anti-PSMA Fab
Put plainly: competition ELISA; peptide 0-100 µM with 0.3 nM PSMA Fab on plate-captured biotinylated PSMA.

T1 sequence (scFv, as listed by the source): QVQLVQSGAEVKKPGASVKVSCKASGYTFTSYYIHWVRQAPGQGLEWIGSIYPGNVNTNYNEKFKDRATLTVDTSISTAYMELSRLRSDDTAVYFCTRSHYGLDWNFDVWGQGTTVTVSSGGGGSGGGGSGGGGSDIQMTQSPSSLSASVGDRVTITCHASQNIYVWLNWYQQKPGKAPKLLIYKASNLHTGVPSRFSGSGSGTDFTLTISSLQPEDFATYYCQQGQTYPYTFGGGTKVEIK

B1: Phage-40 clonal phage peptide (peptide, not shown: large carriers)
peptide: MDWCPIDMWDQCFN
As for B1, the “CD28 scFv signal” value in assay [1] amounted to 2.66. The “CD28 scFv signal in presence of CD28” value in assay [2] amounted to 0.297.

B2: Phage-41 clonal phage peptide (peptide, not shown: large carriers)
peptide: MAWCPRDKWSECFS
As to B2, in assay [1], the “CD28 scFv signal” value turned out to be 0.853. Moreover, the “CD28 scFv signal in presence of CD28” value in assay [2] was 0.147.

B3: Peptide-224 (peptide)
peptide: EGIRCTPIWMCEGF
As to B3, in assay [3], the 50% inhibitory concentration (IC50) amounted to 1880 nM.

B4: Peptide-218 (peptide)
peptide: FVPLCKPAWMCSFV
With B4, in assay [3], the half-inhibitory concentration (IC50) amounted to 2850 nM. Against the preceding molecule, the IC50 is about 1.5-fold higher.

B5: Peptide-238 (peptide)
peptide: LEKLCKPAWMCVNF
The molecule B5 displayed an IC50 in assay [3] of 1550 nM.

B6: Phage-46 clonal phage peptide (peptide, not shown: large carriers)
peptide: MHWCPIDLWAECYA
modifications: cysteine pairing not given here; also: displayed on phage, fused to pIII
As to B6, the “CD28 scFv signal” value in assay [1] is 2.28. Also, in assay [2], the “CD28 scFv signal in presence of CD28” value is 0.225.

B7: Peptide-220 (peptide)
peptide: FEKLCVPKWMCEGI
B7: the IC50 in assay [3] was determined as 1570 nM.

B8: Peptide-229 (peptide)
peptide: VVKACIPTWMCQFV
As for B8, the IC50 in assay [3] turned out to be 4070 nM.

B9: Phage-44 clonal phage peptide (peptide, not shown: large carriers)
peptide: MDWCPIALWAECFN
In the case of B9, the “CD28 scFv signal” value in assay [1] turned out to be 2.46. Further, the “CD28 scFv signal in presence of CD28” value in assay [2] worked out at 0.224.

B10: Phage-64 clonal phage peptide (peptide, not shown: large carriers)
peptide: MDWCPRALWAECFN
As to B10, the “CD28 scFv signal” value in assay [1] amounted to 2.68. Also, the “CD28 scFv signal in presence of CD28” value in assay [2] amounted to 0.339.

B11: Peptide-228 (peptide)
peptide: EFKWCIPSWMCHET
Take B11: in assay [3], the half-maximal inhibitory concentration (IC50) came to 1920 nM.

B12: Peptide-222 (peptide)
peptide: FEKWCTPPWMCSLF
In turn, B12 gave an IC50 in assay [3] of 4160 nM. This IC50 is about 2.2-fold higher than that of the molecule before.

B13: Peptide-234 (peptide)
peptide: LEKTCIPTWMCVGF
Regarding B13, in assay [3], the 50% inhibitory concentration (IC50) was determined as 2080 nM. This IC50 lies about 2-fold lower than the previous one.

B14: Phage-48 clonal phage peptide (peptide, not shown: large carriers)
peptide: IDWCPRYLWDECYN
B14: the “CD28 scFv signal” value in assay [1] is 2.24. Besides, in assay [2], the “CD28 scFv signal in presence of CD28” value was 0.153.

B15: Peptide-226 (peptide)
peptide: LTKLCIPDWMCSEF
In assay [3], B15 showed a half-inhibitory concentration (IC50) of 2680 nM.

B16: Phage-45 clonal phage peptide (peptide, not shown: large carriers)
peptide: MDWCPRPLWHECFS
For B16, the “CD28 scFv signal” value in assay [1] was determined as 2.35. In addition, the “CD28 scFv signal in presence of CD28” value in assay [2] is 0.121.

B17: Peptide-237 (peptide)
peptide: ISKWCIPEWMCTSP
The molecule B17 registered an IC50 in assay [3] of 2700 nM.

B18: Phage-47 clonal phage peptide (peptide, not shown: large carriers)
peptide: MAWCPVYLWHECFN
In the case of B18, the “CD28 scFv signal” value in assay [1] came out at 2.27. Further, the “CD28 scFv signal in presence of CD28” value in assay [2] was determined as 0.351.

B19: Peptide-221 (peptide)
peptide: IDKLCIPFWMCENL
The molecule B19 had an IC50 in assay [3] of 2130 nM.

B20: Phage-42 clonal phage peptide (peptide, not shown: large carriers)
peptide: MDWCPRHLWVHCFN
Regarding B20, the “CD28 scFv signal” value in assay [1] came to 2.5. Further, the “CD28 scFv signal in presence of CD28” value in assay [2] was 0.254.

B21: Peptide-223 (peptide)
peptide: DLRLCKPAWMCYFI
B21 yielded an IC50 in assay [3] of 1470 nM.

B22: Peptide-231 (peptide)
peptide: DLRLCKPAWMCDFI
For the molecule B22, the IC50 in assay [3] stood at 1270 nM.

By IC50 is commonly meant the concentration at which inhibition is half-maximal. A lower IC50 goes with greater potency in that assay.
